Experimental data as given in the Human Domainome abundance scans (Beltran et al. 2025).
± gives the uncertainty stated by the source.

B1: Ankyrin repeat and SAM domain-containing protein 6, residues 774 to 836; numbered along this chain, Q68DC2 (parent)
chain: DEDELTGILKKLSLEKYQPIFEEQEVDMEAFLTLTDGDLKELGIKTDGSRQQILAAISELNAG

Variants of: B1
Assay: abundance fitness (aPCA) (normalised: wild type 0, dead -1); higher = more abundant; growth selection in yeast, the domain comes from the species named
Conditions: Homo sapiens

In order of falling abundance fitness:
1. DEDELTGILKKLSLEKYQPIFEEQEVDMEAFLTLTDDDLKELGIKTDGSRQQILAAISELNAG [G37D]  0.117 ± 0.1
2. DEDELTGILKKLSLEKYQPIFEEQEVDMEAFLTMTDGDLKELGIKTDGSRQQILAAISELNAG [L34M]  0.038 ± 0.083
3. DEDELTGILKKLSLEKYQPIFEEQEVDMEAFLTLSDGDLKELGIKTDGSRQQILAAISELNAG [T35S]  0.037 ± 0.06
4. DEDELTGILKKLSLEKYQPIFEEQEVDMEAFLTLDDGDLKELGIKTDGSRQQILAAISELNAG [T35D]  0.037 ± 0.091
5. DEDELTGILKKLSLEKYQPIFEEQEVDMEAFLTLTDKDLKELGIKTDGSRQQILAAISELNAG [G37K]  0.033 ± 0.054
6. DEDELTGILKKLSLEKYQPIFEEQEVDMEAFLTLTDADLKELGIKTDGSRQQILAAISELNAG [G37A]  0.004 ± 0.05
7. DEDELTGILKKLSLEKYQPIFEEQEVDMEAFLTLTDEDLKELGIKTDGSRQQILAAISELNAG [G37E]  -0.001 ± 0.072
8. DEDELTGILKKLSLEKYQPIFEEQEVDMEAFLTLQDGDLKELGIKTDGSRQQILAAISELNAG [T35Q]  -0.026 ± 0.056
9. DEDELTGILKKLSLEKYQPIFEEQEVDMEAFLTLTDPDLKELGIKTDGSRQQILAAISELNAG [G37P]  -0.035 ± 0.051
10. DEDELTGILKKLSLEKYQPIFEEQEVDMEAFLTLTDLDLKELGIKTDGSRQQILAAISELNAG [G37L]  -0.049 ± 0.039
11. DEDELTGILKKLSLEKYQPIFEEQEVDMEAFLTLTDFDLKELGIKTDGSRQQILAAISELNAG [G37F]  -0.051 ± 0.066
12. DEDELTGILKKLSLEKYQPIFEEQEVDMEAFLTLRDGDLKELGIKTDGSRQQILAAISELNAG [T35R]  -0.057 ± 0.041
13. DEDELTGILKKLSLEKYQPIFEEQEVDMEAFLTLEDGDLKELGIKTDGSRQQILAAISELNAG [T35E]  -0.067 ± 0.048
14. DEDELTGILKKLSLEKYQPIFEEQEVDMEAFLTLNDGDLKELGIKTDGSRQQILAAISELNAG [T35N]  -0.078 ± 0.064
15. DEDELTGILKKLSLEKYQPIFEEQEVDMEAFLTLTDHDLKELGIKTDGSRQQILAAISELNAG [G37H]  -0.087 ± 0.09
16. DEDELTGILKKLSLEKYQPIFEEQEVDMEAFLTLTDNDLKELGIKTDGSRQQILAAISELNAG [G37N]  -0.095 ± 0.099
17. DEDELTGILKKLSLEKYQPIFEEQEVDMEAFLTYTDGDLKELGIKTDGSRQQILAAISELNAG [L34Y]  -0.095 ± 0.12
18. DEDELTGILKKLSLEKYQPIFEEQEVDMEAFLTLTDRDLKELGIKTDGSRQQILAAISELNAG [G37R]  -0.111 ± 0.057
19. DEDELTGILKKLSLEKYQPIFEEQEVDMEAFLTLGDGDLKELGIKTDGSRQQILAAISELNAG [T35G]  -0.199 ± 0.05
20. DEDELTGILKKLSLEKYQPIFEEQEVDMEAFLTLTDCDLKELGIKTDGSRQQILAAISELNAG [G37C]  -0.269 ± 0.087
21. DEDELTGILKKLSLEKYQPIFEEQEVDMEAFLTFTDGDLKELGIKTDGSRQQILAAISELNAG [L34F]  -0.298 ± 0.14
22. DEDELTGILKKLSLEKYQPIFEEQEVDMEAFLTLHDGDLKELGIKTDGSRQQILAAISELNAG [T35H]  -0.302 ± 0.082
23. DEDELTGILKKLSLEKYQPIFEEQEVDMEAFLTKTDGDLKELGIKTDGSRQQILAAISELNAG [L34K]  -0.309 ± 0.064
24. DEDELTGILKKLSLEKYQPIFEEQEVDMEAFLTVTDGDLKELGIKTDGSRQQILAAISELNAG [L34V]  -0.345 ± 0.065
25. DEDELTGILKKLSLEKYQPIFEEQEVDMEAFLTLCDGDLKELGIKTDGSRQQILAAISELNAG [T35C]  -0.363 ± 0.085
26. DEDELTGILKKLSLEKYQPIFEEQEVDMEAFLTLADGDLKELGIKTDGSRQQILAAISELNAG [T35A]  -0.377 ± 0.045
27. DEDELTGILKKLSLEKYQPIFEEQEVDMEAFLTATDGDLKELGIKTDGSRQQILAAISELNAG [L34A]  -0.403 ± 0.06
28. DEDELTGILKKLSLEKYQPIFEEQEVDMEAFLTSTDGDLKELGIKTDGSRQQILAAISELNAG [L34S]  -0.457 ± 0.057
29. DEDELTGILKKLSLEKYQPIFEEQEVDMEAFLTCTDGDLKELGIKTDGSRQQILAAISELNAG [L34C]  -0.459 ± 0.079
30. DEDELTGILKKLSLEKYQPIFEEQEVDMEAFLTNTDGDLKELGIKTDGSRQQILAAISELNAG [L34N]  -0.483 ± 0.15
31. DEDELTGILKKLSLEKYQPIFEEQEVDMEAFLTRTDGDLKELGIKTDGSRQQILAAISELNAG [L34R]  -0.523 ± 0.051
32. DEDELTGILKKLSLEKYQPIFEEQEVDMEAFLTGTDGDLKELGIKTDGSRQQILAAISELNAG [L34G]  -0.551 ± 0.052
33. DEDELTGILKKLSLEKYQPIFEEQEVDMEAFLTTTDGDLKELGIKTDGSRQQILAAISELNAG [L34T]  -0.556 ± 0.073
34. DEDELTGILKKLSLEKYQPIFEEQEVDMEAFLTPTDGDLKELGIKTDGSRQQILAAISELNAG [L34P]  -0.561 ± 0.078
35. DEDELTGILKKLSLEKYQPIFEEQEVDMEAFLTLMDGDLKELGIKTDGSRQQILAAISELNAG [T35M]  -0.65 ± 0.074
36. DEDELTGILKKLSLEKYQPIFEEQEVDMEAFLTDTDGDLKELGIKTDGSRQQILAAISELNAG [L34D]  -0.654 ± 0.12
37. DEDELTGILKKLSLEKYQPIFEEQEVDMEAFLTWTDGDLKELGIKTDGSRQQILAAISELNAG [L34W]  -0.657 ± 0.039
38. DEDELTGILKKLSLEKYQPIFEEQEVDMEAFLTLVDGDLKELGIKTDGSRQQILAAISELNAG [T35V]  -0.687 ± 0.045
39. DEDELTGILKKLSLEKYQPIFEEQEVDMEAFLTLIDGDLKELGIKTDGSRQQILAAISELNAG [T35I]  -0.695 ± 0.11
40. DEDELTGILKKLSLEKYQPIFEEQEVDMEAFLTLFDGDLKELGIKTDGSRQQILAAISELNAG [T35F]  -0.779 ± 0.26
41. DEDELTGILKKLSLEKYQPIFEEQEVDMEAFLTLWDGDLKELGIKTDGSRQQILAAISELNAG [T35W]  -0.879 ± 0.099
42. DEDELTGILKKLSLEKYQPIFEEQEVDMEAFLTLLDGDLKELGIKTDGSRQQILAAISELNAG [T35L]  -0.932 ± 0.053
